Columns and labels:
[1] = molecular target: soluble hFcγRIIA^131H (human) (UniProt P12318); test: SPR Biacore T100; reference of the fold not given
[2] = molecular target: soluble hFcγRIIA^131R (human) (UniProt P12318); test: SPR Biacore T100; reference of the fold not given
soluble hFcγRIIB (human) [3] = molecular target: soluble hFcγRIIB (human) (UniProt P31994); test: SPR Biacore T100; reference of the fold not given
[4] = molecular target: soluble hFcγRIIA^131H (human) (UniProt P12318); test: SPR Biacore T100, steady state, antibody immobilised
[5] = molecular target: soluble hFcγRIIA^131R (human) (UniProt P12318); test: as above
soluble hFcγRIIB (human) [6] = molecular target: soluble hFcγRIIB (human) (UniProt P31994); test: as above

soluble hFcγRIIA^131R (human), sequence (P12318 34-217 H167R): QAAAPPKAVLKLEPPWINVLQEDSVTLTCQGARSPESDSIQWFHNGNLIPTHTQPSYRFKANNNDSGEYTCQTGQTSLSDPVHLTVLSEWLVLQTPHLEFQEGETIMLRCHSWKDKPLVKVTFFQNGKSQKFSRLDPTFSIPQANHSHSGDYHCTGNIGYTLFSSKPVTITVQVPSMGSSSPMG
soluble hFcγRIIB (human), sequence (P31994 43-217 limits assumed): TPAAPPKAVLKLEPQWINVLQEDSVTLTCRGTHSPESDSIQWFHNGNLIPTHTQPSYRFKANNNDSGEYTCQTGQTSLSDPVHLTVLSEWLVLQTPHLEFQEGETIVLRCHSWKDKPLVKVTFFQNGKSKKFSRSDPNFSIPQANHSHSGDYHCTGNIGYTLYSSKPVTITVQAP
soluble hFcγRIIA^131H (human), sequence (P12318 34-217): as the sequence (P12318 34-217 H167R) above, with R134H counted along it

B1: 4-4-20 hIgG1 Fc mutant L163P-S183G-K222E-G236A-N276D-S298G-T299A-D312G (antibody, part only; not given: 4-4-20 variable domains, not shown: another chain or arm of the molecule)
constant: ASTKGPSVFPLAPSSKSTSGGTAALGCLVKDYFPEPVTVSWNSGAPTSGVHTFPAVLQSSGLYSLGSVVTVPSSSLGTQTYICNVNHKPSNTKVDKRVEPKSCDETHTCPPCPAPELLAGPSVFLFPPKPKDTLMISRTPEVTCVVVDVSHEDPEVKFDWYVDGVEVHNAKTKPREEQYNGAYRVVSVLTVLHQGWLNGKEYKCKVSNKALPAPIEKTISKAKGQPREPQVYTLPPSRDELTKNQVSLTCLVKGFYPSDIAVEWESNGQPENNYKTTPPVLDSDGSFFLYSKLTVDKSRWQQGNVFSCSVMHEALHNHYTQKSLSLSPGK
Fold change in affinity [1]: 2.6 fold
Fold change in affinity [2]: 7.4 fold
Fold change in affinity (soluble hFcγRIIB (human) [3]): 1.3 fold
Kd [4]: 1340 nM
Kd [5]: 781 nM
Kd (soluble hFcγRIIB (human) [6]): 8.48 µM

— patent publication US8618251
